Data published in the supplement of paper PMC9170038.

The sequences below were run on MS2 coat protein (assay: apparent KD of MS2 coat protein; higher = weaker reporter binding). Settings: Eterna round: R107; input ligand: theophylline 2 mM.
Experimental: (§1)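 RNA-MaP round R107: designed RNA switches with theophylline, tryptophan, arginine or FMN aptamers are transcribed on-chip within common flanks. They are titrated with SNAP-549-labelled MS2 coat protein in RNA-MaP buffer (100 mM Tris pH 7.5, 80 mM KCl, 4 mM MgCl2), without ligand or with the indicated ligand. Median apparent KD per design.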
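Wherever apparent KD of K4 kissing-loop reporter is given: bound reporter read as fluorescence of individual clusters on recovered sequencing chips by microscopy, with normalized cluster intensities fitted with a binding model.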

Compared with “CACAGUGCGAAUUUGAAUUCGCACGAUCCUCGAGGACCGGUACGGCCGCCACUCGCGCGGGUCGUACAUGAGGAUCACCCAUGUC [Quermavebe]”, “UGUAUGUGAUGGGAUACCAGACCAGCUGGUGAUACAUGAGGAUCACCCAUGUAAAUUUGGGUCCCUUGGCAGCCCAUCGCAUACU [SSTheo B #25]” is 19-fold lower in “apparent KD of MS2 coat protein” value: 1.19 µM for the first, 0.0637 µM for the second.

Same assay, conditions: Eterna round: R107; input ligand: tryptophan 2.4 mM

“UGUGUCGUCUGAAGGAGCGGCUCUUGAUCCUCGUGAGACAUGAGGAUCACCCAUGUCUCGAGCCAGGUAGGUCGCAGGCGGCACA [#26 Exclusion - Arginine B]” and “ACAUUUAACUGAAGGAGCGUGAUAAACAUGAGGAUCACCCAUGUACCAAAGAUUUUCAGAUCACAGGUAGGUCGCAGACUAAUGA [JR_ExcArginiB_Sub015]” are within 1.5-fold of each other in “apparent KD of MS2 coat protein” value: 0.0141 µM for the first, 0.0133 µM for the second.

“GAUUACAUGAGGAUCACCCAUGUAACUGAAGGAGCGGUAAUAAAGCCAGGUAGGUCGCAGAACAACAUGUGGUUCAUCCAUGUAA [#14 Exclusion - Arginine A]” and “ACGUCCGGAUUGAUCGUGGGCAUGGUCGAUACCAGUAUUUUAAUCUACCCUUGGCAGCGACAUGAGGAUCACCCAUGUGCGAUGA [XTheo A #19]” are within 1.5-fold of each other in “apparent KD of MS2 coat protein” value: 0.0213 µM for the first, 0.0162 µM for the second.

Going from “UAUAUUGUGAUGGAUACCAGCAGAGAAAACGUUUAUCCUAACAUGAGGAUCACCCAUGUAUGCCCUUGGCAGCUGUUGUGGUAUA [8.P]” to “UUUAAAAUCAGAAGGAGCGUGAUAAACAUGAGGAUCACCCAUGUCGAAAAUUUAAUAUAAUCACAGGUAGGUCGCUGUAAUAUUU [Same State - Ariginine B]”, the “apparent KD of MS2 coat protein” value falls from 0.0386 µM to 0.0142 µM (2.7-fold).

“AAUUCCUAACAUGAGGAUCACCCAUGUGAAGGAGCGCCGAAUAAGGCAGGUAGGUCGCACAUGGAACCGCUACGAAAGUAGCAAA” and “UGGUACAUGGCGGCCGCCACUUCACGUAAAAUAAAAACUUGAGGAUCACCCAAGUAAUAAGUUGGGAGGACCGGGUCAUGUACCU” are within 1.5-fold of each other in “apparent KD of MS2 coat protein” value: 0.0178 µM for the first, 0.014 µM for the second.

“ACCGCAUCCGUAUAGGAUGCGGCCCAUGAAGGAGCGUGGGAAACCACAGGUAGGUCGCAUGACAUGAGGAUCACCCAUGUUUAUU [Matrix]” and “ACAUGAGGAUCACCCAUGUCUGCCUCGGAUACCAGCGGAAGAAAACGCCCUUGGCAGCCGAACAUGAGGAUCACCCAUGUAGGCU [Same State Theophylline A GF30]” are within 1.5-fold of each other in “apparent KD of MS2 coat protein” value: 0.0339 µM for the first, 0.0452 µM for the second.

“CCGUUUUAUGGCGACAUAGGGCGGACUGAAGGAGCGGUGAAUAAGCCAGGUAGGUCGCAGAGAUCCACAUGAGGAUCACCCAUGU [!0.aD]” and “GGUUGAUAUAUAUAUAUAUUGAUUACUGAAGGAGCGGGAAAUAACCCAGGUAGGUCGCAGAGAUCCACAUGAGGAUCACCCAUGU [!0.F]” are within 1.5-fold of each other in “apparent KD of MS2 coat protein” value: 0.0775 µM for the first, 0.0569 µM for the second.

Going from “ACACGGAAUGAUGGAUCACCUCGUUAAUAACGAGGACCGGUACGGCCGCCACUCGAAAACCGUGACCUGUACGAAAAGUGCAGGA [TrypAS 15 #SwitchBubble #HomemadeMS2 #StaticStrem #MS2Early]” to “AUUCAUAACUGAAGGAGCGUGAUAUAAAUUUUUACAUGAGGAUCACCCAUGUUUCAUAGAUCACAGGUAGGUCGCAGAUUCUCAU [JR_SSArginiB_Sub011]”, the “apparent KD of MS2 coat protein” value falls from 0.0761 µM to 0.0392 µM (1.9-fold).

“UCGAUGGUACCCGAUACCAGCAAUACAUCACAGACCUGAUACAUGAGGAUCACCCAUGUGUGCCCUUGGCAGCGGGUCCUGAAAA [theeternabot_exclusion_MS2_Theo_B_25]” and “UGUAUGUGAUGGGAUACCAGACCAGCUGGUGAUACAUGAGGAUCACCCAUGUAAAUUUGGGUCCCUUGGCAGCCCAUCGCAUACU [SSTheo B #25]” are within 1.5-fold of each other in “apparent KD of MS2 coat protein” value: 0.0206 µM for the first, 0.0239 µM for the second.

In the case of “UCGUGUAUAACGGAUACCAGUGAGAAGGAUACAUGAGGAUCACCCAUGUGAGUUGAUGUACACCCUUGGCAGCUGUAUAUAUCUA [llpmullin]”, the “apparent KD of MS2 coat protein” value is reported as 0.0733 µM.

The sequences below were run on K4 kissing-loop RNA reporter (assay: apparent KD of K4 kissing-loop reporter; higher = weaker reporter binding). Settings: Eterna round: R107; input ligand: FMN 200 uM.
Experimental: as §1, with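 “a labelled K4 kissing-loop RNA reporter” for “SNAP-549-labelled MS2 coat protein”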

“AGUUUAUAGGAGGAUACCAGUACGGAUAAGGUACGUUAAUAGUAGAGUGAUGUUCUAAAGUACCCUUGGCAGCUUAGAUUGAGUU [#27 K4 Theophylline B Exclusion]” and “GCCGUAGAUGGAAGGAGCGUGUCAAAGUGAUGUUUUGAUUAACUCCCUUAGGGAAAGAUGGCACAGGUAGGUCGCCAUCUACGGC” are within 1.5-fold of each other in “apparent KD of K4 kissing-loop reporter” value: 0.11 µM for the first, 0.104 µM for the second.

Compared with “GCAAGAGAGUGAUGUUGUUUUGAUCAGGGCAAGGAUAUGCUAUAUAGCAGAAGGUGCCGUUUUCUGCUGGCUUUCGUUACCCAUU [theeternabot_exclusion_KL_FMN_A_6]”, “AGUGGACAUGUCUAGAGUGAUGUUCUGGAUACCAGACACGAAAGUGUCCCUUGGCAGCCGGAGUGAUGUUCUGGCGUUCACUAAA [Omei KL Theo A Exc B v7]” is 1.6-fold lower in “apparent KD of K4 kissing-loop reporter” value: 0.75 µM for the first, 0.476 µM for the second.

First: UGGACCAAGGAGUGAUGUUCCAAAUGUGAUACCAGCCACGAAAGUGGCCCUUGGCAGCACUGCCAAAGGACGAAAGUCCGGUCCU [#SwitchBubble 10 #StaticStem #K4Early]
Second: GCCGUACGCACGGAUACCAGCACUCGUUGAGUGAUGUUCACGGUGUGGUAUUCAACGGGCUGCCCUUGGCAGCCGUGCGUACGGC
The “apparent KD of K4 kissing-loop reporter” value of the first is 2.7-fold higher: 0.371 µM for the first, 0.135 µM for the second.

Going from “UGUCAUUGGUCGGCCGCCACUAGACGGAUCAUAAGAUCUGUCAAUAAGAGUGAUGUUCUAAAUAAUAGGACCGGGACCGAUGACU [TrypBS 27 #SwitchBubble #StaticStem]” to “CUUGGGCUUGCGGCCGCCACUCAAACAUCAUUAAGGAUGGUCCACGGGCAAGUGAUGUUUAUCCGGAGGACCGGGCAUAGCGACA [theeternabot_exclusion_KL_Trp_B_23]”, the “apparent KD of K4 kissing-loop reporter” value falls from 0.988 µM to 0.337 µM (2.9-fold).

Going from “UGAUACCAGACUGAUACCAGCGAGUGAUGUUCGUUGAAAUCAGGGUCAAAGACCCUGUCUCGCCCUUGGCAGCAGUCUGGUAUCU [TheoBX 22 #SwitchBubble #StaticStem]” to “UGGAGUUGACGAAAAGUCAACUCCUGAGAUACCAGUGACGAAAGUCACCCUUGGCAGCUCACUGCCAGUGAUGUUGGAAGAUAAA [whbob_SS_Theo_A_w46]”, the “apparent KD of K4 kissing-loop reporter” value falls from 0.69 µM to 0.208 µM (3.3-fold).

“CCUUCCUAAAACGAUACCAGUUUCUAUCCUCAAUCCAGUGAUGUUGAAUUGAGCUCACAGAACCCUUGGCAGCGUCGCUAUACGG [theeternabot_sameState_KL_Theo_B_39]” and “UGACUGGACUGAAGGAGCGCUGAACUCCUAGUGAUGUUAGGACAACGAGACAAAGUCUCGAAGCAGGUAGGUCGCAGUCUAGUCU” are within 1.5-fold of each other in “apparent KD of K4 kissing-loop reporter” value: 0.214 µM for the first, 0.154 µM for the second.

Same assay, conditions: Eterna round: R107; input ligand: arginine 13.2 mM

Going from “AGUUUAUAGGAGGAUACCAGUACGGAUAAGGUACGUUAAUAGUAGAGUGAUGUUCUAAAGUACCCUUGGCAGCUUAGAUUGAGUU [#27 K4 Theophylline B Exclusion]” to “GCCGUAGAUGGAAGGAGCGUGUCAAAGUGAUGUUUUGAUUAACUCCCUUAGGGAAAGAUGGCACAGGUAGGUCGCCAUCUACGGC”, the “apparent KD of K4 kissing-loop reporter” value falls from 0.171 µM to 0.0742 µM (2.3-fold).

Compared with “GCAAGAGAGUGAUGUUGUUUUGAUCAGGGCAAGGAUAUGCUAUAUAGCAGAAGGUGCCGUUUUCUGCUGGCUUUCGUUACCCAUU [theeternabot_exclusion_KL_FMN_A_6]”, “AGUGGACAUGUCUAGAGUGAUGUUCUGGAUACCAGACACGAAAGUGUCCCUUGGCAGCCGGAGUGAUGUUCUGGCGUUCACUAAA [Omei KL Theo A Exc B v7]” is 2.3-fold lower in “apparent KD of K4 kissing-loop reporter” value: 0.605 µM for the first, 0.267 µM for the second.

First: UGGACCAAGGAGUGAUGUUCCAAAUGUGAUACCAGCCACGAAAGUGGCCCUUGGCAGCACUGCCAAAGGACGAAAGUCCGGUCCU [#SwitchBubble 10 #StaticStem #K4Early]
Second: GCCGUACGCACGGAUACCAGCACUCGUUGAGUGAUGUUCACGGUGUGGUAUUCAACGGGCUGCCCUUGGCAGCCGUGCGUACGGC
The “apparent KD of K4 kissing-loop reporter” value of the first is 3.9-fold higher: 0.352 µM for the first, 0.0912 µM for the second.

Compared with “UGUCAUUGGUCGGCCGCCACUAGACGGAUCAUAAGAUCUGUCAAUAAGAGUGAUGUUCUAAAUAAUAGGACCGGGACCGAUGACU [TrypBS 27 #SwitchBubble #StaticStem]”, “CUUGGGCUUGCGGCCGCCACUCAAACAUCAUUAAGGAUGGUCCACGGGCAAGUGAUGUUUAUCCGGAGGACCGGGCAUAGCGACA [theeternabot_exclusion_KL_Trp_B_23]” is 2.4-fold lower in “apparent KD of K4 kissing-loop reporter” value: 0.653 µM for the first, 0.27 µM for the second.
